This passage reports Kd, koff and kon results from patent publication US20230340152A1 (published 2023).

One may read the Kd as the free concentration of one partner at which half of the binding sites on the other are occupied at equilibrium, for simple one-to-one binding. Higher therefore signals a looser complex. A word on the koff: it is a measure of how fast the partners let go of each other. Low readings indicate slow dissociation, high ones fast dissociation. What is called kon is the second-order rate constant of association. A low value points to slow association.

The test has as its target T1, KO_Cterm CD73 chimera (human; chicken).
T1 construct: also called C-terminal domain-swapped CD73
T1 chain: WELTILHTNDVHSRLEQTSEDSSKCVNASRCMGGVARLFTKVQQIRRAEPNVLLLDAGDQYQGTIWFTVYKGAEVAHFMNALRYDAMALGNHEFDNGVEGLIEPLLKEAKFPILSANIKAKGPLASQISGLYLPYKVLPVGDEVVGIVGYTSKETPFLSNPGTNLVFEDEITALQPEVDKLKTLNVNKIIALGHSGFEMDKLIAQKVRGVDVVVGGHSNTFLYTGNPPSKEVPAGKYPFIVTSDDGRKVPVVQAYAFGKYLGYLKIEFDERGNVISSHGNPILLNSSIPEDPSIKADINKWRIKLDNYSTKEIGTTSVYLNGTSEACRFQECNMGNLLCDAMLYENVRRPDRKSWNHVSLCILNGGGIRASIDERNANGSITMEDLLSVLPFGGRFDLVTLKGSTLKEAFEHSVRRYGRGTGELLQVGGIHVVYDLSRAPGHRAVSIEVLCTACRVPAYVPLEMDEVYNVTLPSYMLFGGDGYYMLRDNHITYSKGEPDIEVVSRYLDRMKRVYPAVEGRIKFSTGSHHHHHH
Description: SPR (ProteOn), CD73 variant immobilized on HTG chip. The procedure: Binding of MEDI9447 to wild-type and mutant CD73 proteins was measured by surface plasmon resonance (SPR) using a ProteOn instrument (BioRad). CD73 crude cell supernatant protein samples were diluted to 3 µg/ml in PBS, 0.005% Tween-20, pH 7.4 (BioRad) and immobilized to ~400 RU on a HTG tris-NTA sensor chip (BioRad) pre-activated with 10 mM NiSO₄, 10 mM MES, pH 6.0 (BioRad). An equivalently diluted crude cell supernatant sample from non-transfected cells was included as a reference channel control. Sensorgrams were recorded by flowing two-fold dilutions of MEDI9447 prepared in PBS, 0.005% Tween-20, pH 7.4, ranging from 5 nM to 0.31 nM. […] Antibody binding was measured at a flow rate of 100 µL/min with a 3 min association phase and 20 min dissociation phase. The sensor chip surface was regenerated between each run by an 800 s injection of 300 mM EDTA, pH 8.5 (BioRad) at a flow rate of 30 µL/min. Binding kinetics were analyzed using the ProteOn data analysis software. Double referencing was performed and, unless noted otherwise, a 1:1 Langmuir binding model was utilized to fit the data. Some CD73 variants containing mutations within the amino acid region 171-188 fit poorly to a 1:1 model (i.e., Chi² values >10% of Rmax). Where noted, these variants were fit with a heterogenous antigen (2:1) model. […] Due to the assay format (antigen immobilized) and the dimeric state of CD73, KD values may be exaggerated due to avidity effects. However, it is not anticipated that this impacts ranking of MEDI9447 binding to the different CD73 variants.

B1: MEDI9447 (antibody, human IgG1, lambda, V domains shown)
VH: EVQLLESGGGLVQPGGSLRLSCAASGFTFSSYAYSWVRQAPGKGLEWVSAISGSGGRTYYADSVKGRFTISRDNSKNTLYLQMNSLRAEDTAVYYCARLGYGRVDEWGRGTLVTVSS
VL: QSVLTQPPSASGTPGQRVTISCSGSLSNIGRNPVNWYQQLPGTAPKLLIYLDNLRLSGVPDRFSGSKSGTSASLAISGLQSEDEADYYCATWDDSHPGWTFGGGTKLTVLG
notes: Human IgG1-TM (L234F, L235E, P331S), lambda light chain; also called clone 10.3 antibody; 73combo3
For the molecule B1, the Kd was 1.7 pM, the koff is 8.1e-06 s⁻¹ and the kon is 4.75e+06 M⁻¹ s⁻¹.
